{"source": "patent US20220213181A1", "about": "(Novartis, published 2022)", "binders": {"B1": {"name": "NEG276-LALA (antibody, human IgG1, kappa, L234A L235A)", "heavy": "not shown", "light": "EIVMTQSPATLSVSPGERATLSCKASQDIGSNLNWLQQKPGQAPRRLIYAVSNRGPGIPARFSGSRSGSEYTLTISSLQSEDFAVYYCLQYASSPWTFGQGTKVEIKRTVAAPSVFIFPPSDEQLKSGTASVVCLLNNFYPREAKVQWKVDNALQSGNSQESVTEQDSKDSTYSLSSTLTLSKADYEKHKVYACEVTHQGLSSPVTKSFNRGEC"}}, "key": {"[1]": {"molecular_target": "T1, Human ANGPTL4(26-406)-FLAG-His6-Avi (human, UniProt Q9BY76 24-406, biotin on the C-terminal Avi tag (BirA) where the protein is immobilised)", "T1 construct": "the text calls it 20 amino acids), then QP, ANGPTL4 26-406 and FLAG-His6-Avi; the signal peptide is left out here; also called full length human ANGPTL4; hANGPTL4", "T1 sequence": "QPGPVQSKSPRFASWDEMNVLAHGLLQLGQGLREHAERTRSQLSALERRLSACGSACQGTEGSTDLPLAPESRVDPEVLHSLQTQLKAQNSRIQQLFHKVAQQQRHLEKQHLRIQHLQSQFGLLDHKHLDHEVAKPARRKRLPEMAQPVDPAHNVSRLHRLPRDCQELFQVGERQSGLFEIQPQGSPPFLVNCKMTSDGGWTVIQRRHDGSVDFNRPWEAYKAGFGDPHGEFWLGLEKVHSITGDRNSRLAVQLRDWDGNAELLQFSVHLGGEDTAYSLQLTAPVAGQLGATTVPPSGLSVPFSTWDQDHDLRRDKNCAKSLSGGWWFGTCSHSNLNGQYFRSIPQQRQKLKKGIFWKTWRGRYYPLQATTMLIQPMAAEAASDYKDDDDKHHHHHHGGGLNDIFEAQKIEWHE", "assay": "Octet (ForteBio) kinetics, biotinylated antigen on streptavidin sensor, IgG in solution"}, "[2]": {"molecular_target": "T2, Rat ANGPTL4(24-405)-FLAG-His6-Avi (rat, UniProt Q6TMA8 24-405, biotin on the C-terminal Avi tag (BirA) where the protein is immobilised)", "T2 sequence": "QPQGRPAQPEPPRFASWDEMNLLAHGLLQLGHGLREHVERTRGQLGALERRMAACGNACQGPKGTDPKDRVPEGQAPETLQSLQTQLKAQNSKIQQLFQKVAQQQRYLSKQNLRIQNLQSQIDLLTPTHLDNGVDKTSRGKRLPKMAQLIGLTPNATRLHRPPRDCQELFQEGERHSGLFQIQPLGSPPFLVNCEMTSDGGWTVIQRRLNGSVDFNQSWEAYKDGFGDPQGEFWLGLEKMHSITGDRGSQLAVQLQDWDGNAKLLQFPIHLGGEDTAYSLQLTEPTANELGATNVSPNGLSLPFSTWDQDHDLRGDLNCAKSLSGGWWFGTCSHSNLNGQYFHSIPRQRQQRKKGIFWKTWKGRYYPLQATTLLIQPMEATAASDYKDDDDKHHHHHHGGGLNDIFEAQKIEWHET", "assay": "Octet (ForteBio) kinetics, biotinylated antigen on streptavidin sensor, IgG in solution"}, "[3]": {"molecular_target": "T3, Cynomolgus monkey ANGPTL4(26-161)-FLAG-His6-Avi (cynomolgus monkey, biotin on the C-terminal Avi tag (BirA) where the protein is immobilised)", "T3 construct": "also called Cyno ANGPTL4 (26-161)", "T3 chain": "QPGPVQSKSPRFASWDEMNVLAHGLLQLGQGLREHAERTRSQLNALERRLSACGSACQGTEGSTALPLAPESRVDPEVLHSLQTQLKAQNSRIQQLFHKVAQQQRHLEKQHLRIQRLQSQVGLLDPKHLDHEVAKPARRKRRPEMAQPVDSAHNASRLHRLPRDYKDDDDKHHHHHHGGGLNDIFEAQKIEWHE", "assay": "Octet (ForteBio) kinetics, biotinylated antigen on streptavidin sensor, IgG in solution"}, "[4]": {"molecular_target": "T4, Human ANGPTL4(26-161)-FLAG-His6-Avi (human, biotin on the C-terminal Avi tag (BirA) where the protein is immobilised)", "T4 construct": "also called human ANGPTL4 N-terminal coiled coil domain; hANGPTL4-CCD", "T4 chain": "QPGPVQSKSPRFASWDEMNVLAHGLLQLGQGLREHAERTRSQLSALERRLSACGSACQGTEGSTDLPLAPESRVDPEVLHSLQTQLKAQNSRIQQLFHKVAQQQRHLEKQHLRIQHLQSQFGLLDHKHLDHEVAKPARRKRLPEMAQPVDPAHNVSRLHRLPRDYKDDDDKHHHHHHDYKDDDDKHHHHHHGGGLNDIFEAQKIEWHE", "assay": "Octet (ForteBio) kinetics, biotinylated antigen on streptavidin sensor, IgG in solution"}, "[5]": {"molecular_target": "T5, Cynomolgus monkey ANGPTL4(26-406)-FLAG-His6-Avi (cynomolgus monkey, biotin on the C-terminal Avi tag (BirA) where the protein is immobilised)", "T5 construct": "also called Cyno ANGPTL4 (26-406)", "T5 chain": "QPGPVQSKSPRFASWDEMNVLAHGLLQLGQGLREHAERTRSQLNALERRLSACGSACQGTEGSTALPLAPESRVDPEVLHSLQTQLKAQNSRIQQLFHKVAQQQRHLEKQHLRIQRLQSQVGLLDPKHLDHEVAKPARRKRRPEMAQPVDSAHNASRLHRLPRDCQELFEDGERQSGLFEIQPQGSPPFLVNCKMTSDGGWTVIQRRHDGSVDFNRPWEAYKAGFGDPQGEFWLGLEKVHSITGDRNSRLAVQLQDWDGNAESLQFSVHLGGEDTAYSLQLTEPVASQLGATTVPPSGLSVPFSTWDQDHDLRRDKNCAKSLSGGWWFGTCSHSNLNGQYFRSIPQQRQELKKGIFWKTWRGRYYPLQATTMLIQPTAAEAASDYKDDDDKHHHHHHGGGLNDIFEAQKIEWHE", "assay": "Octet (ForteBio) kinetics, biotinylated antigen on streptavidin sensor, IgG in solution"}, "[6]": {"molecular_target": "T2, Rat ANGPTL4(24-405)-FLAG-His6-Avi", "assay": "Octet (ForteBio) kinetics, biotinylated antigen on streptavidin sensor, IgG in solution; Octet kinetics, rat ANGPTL4 on the sensor, antibody up to 25 nM; run 2"}}, "note": "“And” between values parts separate entries of the source, which are not always exact repeats. Equal values may be shown once."}
{"binder": "B1", "values": [{"measurement": "Kd", "setting": "[1]", "result": "0.014 nM and 0.017 nM and ≤ 0.012 nM and 0.01 nM"}, {"measurement": "koff", "setting": "[1]", "result": "5.9e-06 s⁻¹ and 6e-06 s⁻¹ and 7e-06 s⁻¹"}, {"measurement": "kon", "setting": "[1]", "result": "410000 M⁻¹ s⁻¹ and 360000 M⁻¹ s⁻¹ and 430000 M⁻¹ s⁻¹ and 680000 M⁻¹ s⁻¹"}, {"measurement": "Kd", "setting": "[2]", "result": 6.03, "unit": "nM"}, {"measurement": "koff", "setting": "[3]", "result": "6.4e-06 s⁻¹ and 1.7e-05 s⁻¹"}, {"measurement": "kon", "setting": "[3]", "result": "270000 M⁻¹ s⁻¹ and 190000 M⁻¹ s⁻¹"}, {"measurement": "Kd", "setting": "[4]", "result": "≤ 0.023 nM and 0.052 nM"}, {"measurement": "koff", "setting": "[4]", "result": "9.2e-06", "unit": "s⁻¹"}, {"measurement": "kon", "setting": "[4]", "result": "220000 M⁻¹ s⁻¹ and 180000 M⁻¹ s⁻¹"}, {"measurement": "Kd", "setting": "[5]", "result": "0.015 nM and ≤ 0.014 nM"}, {"measurement": "koff", "setting": "[5]", "result": "5.4e-06", "unit": "s⁻¹"}, {"measurement": "kon", "setting": "[5]", "result": "360000 M⁻¹ s⁻¹ and 370000 M⁻¹ s⁻¹"}, {"measurement": "koff", "setting": "[6]", "result": 0.0011, "unit": "s⁻¹"}, {"measurement": "kon", "setting": "[6]", "result": 170000, "unit": "M⁻¹ s⁻¹"}]}
